Source: IntAct's records for PubMed 12080061

B1: 182 kDa tankyrase-1-binding protein (Homo sapiens), Q9C0C2 (parent)
chain: MKVSTLRESSAMASPLPREMEEELVPTGSEPGDTRAKPPVKPKPRALPAKPALPAKPSLLVPVGPRPPRGPLAELPSARKMNMLAGPQPYGGSKRPLPFAPRPAVEASTGGEATQETGKEEAGKEEPPPLTPPARCAAPGGVRKAPAPFRPASERFAATTVEEILAKMEQPRKEVLASPDRLWGSRLTFNHDGSSRYGPRTYGTTTAPRDEDGSTLFRGWSQEGPVKSPAECREEHSKTPEERSLPSDLAFNGDLAKAASSELPADISKPWIPSSPAPSSENGGPASPGLPAEASGSGPGSPHLHPPDKSSPCHSQLLEAQTPEASQASPCPAVTPSAPSAALPDEGSRHTPSPGLPAEGAPEAPRPSSPPPEVLEPHSLDQPPATSPRPLIEVGELLDLTRTFPSGGEEEAKGDAHLRPTSLVQRRFSEGVLQSPSQDQEKLGGSLAALPQGQGSQLALDRPFGAESNWSLSQSFEWTFPTRPSGLGVWRLDSPPPSPITEASEAAEAAEAGNLAVSSREEGVSQQGQGAGSAPSGSGSSWVQGDDPSMSLTQKGDGESQPQFPAVPLEPLPTTEGTPGLPLQQAEERYESQEPLAGQESPLPLATREAALPILEPVLGQEQPAAPDQPCVLFADAPEPGQALPVEEEAVTLARAETTQARTEAQDLCRASPEPPGPESSSRWLDDLLASPPPSGGGARRGAGAELKDTQSPSTCSEGLLGWSQKDLQSEFGITGDPQPSSFSPSSWCQGASQDYGLGGASPRGDPGLGERDWTSKYGQGAGEGSTREWASRCGIGQEEMEASSSQDQSKVSAPGVLTAQDRVVGKPAQLGTQRSQEADVQDWEFRKRDSQGTYSSRDAELQDQEFGKRDSLGTYSSRDVSLGDWEFGKRDSLGAYASQDANEQGQDLGKRDHHGRYSSQDADEQDWEFQKRDVSLGTYGSRAAEPQEQEFGKSAWIRDYSSGGSSRTLDAQDRSFGTRPLSSGFSPEEAQQQDEEFEKKIPSVEDSLGEGSRDAGRPGERGSGGLFSPSTAHVPDGALGQRDQSSWQNSDASQEVGGHQERQQAGAQGPGSADLEDGEMGKRGWVGEFSLSVGPQREAAFSPGQQDWSRDFCIEASERSYQFGIIGNDRVSGAGFSPSSKMEGGHFVPPGKTTAGSVDWTDQLGLRNLEVSSCVGSGGSSEARESAVGQMGWSGGLSLRDMNLTGCLESGGSEEPGGIGVGEKDWTSDVNVKSKDLAEVGEGGGHSQARESGVGQTDWSGVEAGEFLKSRERGVGQADWTPDLGLRNMAPGAVCSPGESKELGVGQMDWGNNLGLRDLEVTCDPDSGGSQGLRGCGVGQMDWTQDLAPQNVELFGAPSEAREHGVGGVSQCPEPGLRHNGSLSPGLEARDPLEARELGVGETSGPETQGEDYSSSSLEPHPADPGMETGEALSFGASPGRCPARPPPSGSQGLLEEMLAASSSKAVARRESAASGLGGLLEEEGAGAGAAQEEVLEPGRDSPPSWRPQPDGEASQTEDVDGTWGSSAARWSDQGPAQTSRRPSQGPPARSPSQDFSFIEDTEILDSAMYRSRANLGRKRGHRAPVIRPGGTLGLSEAADSDAHLFQDSTEPRASRVPSSDEEVVEEPQSRRTRMSLGTKGLKVNLFPGLSPSALKAKLRPRNRSAEEGELAESKSSQKESAVQRSKSCKVPGLGKPLTLPPKPEKSSGSEGSSPNWLQALKLKKKKV

Variants of: B1
Details: with tnks1_human TNKS

Question: How did the “effect of a mutation on the interaction” value turn out when G1513A was run?
Answer: disrupting interaction strength
